According to patent US20090298759A1 (published 2009):

Experiments:
[1] = target: T1, recombinant human FcγRI from R&D Systems (Cat#1257-FC-050) (human, UniProt P12314 16-292); assay: ELISA, recombinant human FcγRI
T1 construct: extracellular domain; Bought reagent; also called CD64

FcγRI = target: T2, FcγRI; assay: surface plasmon resonance; FcγRI immobilized (1000 µRIU), CRP injected at 42, 84, 169 and 338 nM
T2 construct: also called FcgRI; CD64
Experimental: FcγRI (1000 μRIU) were immobilized CRP was injected @ 42 nM, 84 nM, 169 nM and 338 nM. Data are recorded as resonance units over time after injection.

T2 sequence (P12314 16-292): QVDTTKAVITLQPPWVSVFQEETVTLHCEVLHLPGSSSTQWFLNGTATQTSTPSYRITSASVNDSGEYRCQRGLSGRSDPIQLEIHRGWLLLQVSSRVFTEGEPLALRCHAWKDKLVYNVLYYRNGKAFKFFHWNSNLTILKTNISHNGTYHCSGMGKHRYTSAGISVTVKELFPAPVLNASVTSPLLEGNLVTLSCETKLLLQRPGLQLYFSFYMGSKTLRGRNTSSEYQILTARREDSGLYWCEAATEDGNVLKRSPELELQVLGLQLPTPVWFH
T1 sequence (P12314 16-292): as above

B1: C-reactive protein (CRP) (ligand)
chain: QTDMSRKAFVFPKESDTSYVSLKAPLTKPLKAFTVCLHFYTELSSTRGYSIFSYATKRQDNEILIFWSKDIGYSFTVGGSEILFEVPEVTVAPVHICTSWESASGIVEFWVDGKPRVRKSLKKGYTVGAEASIILGQEQDSFGGNFEGSQSLVGDIGNVNMWDFVLSPDEINTIYLGGPFSPNVLNWRALKYEVQGEVFTKPQLWP
notes: also called human CRP
- binding result [1]: binds
- Kd (FcγRI): 183 nM
